Here are results for three molecules from patent US20210363257A1 (Pieris, published 2021).

The target of assay [1] is T1, cyPD-L1-His (cynomolgus PD-L1 with a C-terminal polyhistidine tag) (cynomolgus).
T1 construct: Bought
Briefly: ELISA, cyPD-L1-His coated, detection anti-human IgG Fc-HRP. How it is done:
(§1) Recombinant huPD-L1-His or cyPD-L1-His (human or cynomolgus PD-L1 with a C-terminal polyhistidine tag, R&D Systems or Sino Biologics) at the concentration of 1 μg/mL in PBS was coated overnight on microtiter plates at 4° C. After washing with PBS-0.05% T (PBS supplemented with 0.05% (v/v) Tween 20), the plates were blocked with 2% BSA (w/v) in PBS-0.1% T (PBS supplemented with 0.1% (v/v) Tween 20) for 1 h at room temperature. […] Bound molecules under study were detected by incubation with 1:5000 diluted anti-human IgG Fc-HRP (Jackson Laboratory) in PBS-0.1% T-2% BSA. After an additional wash step, fluorogenic HRP substrate (QuantaBlu, Thermo) was added to each well and the fluorescence intensity was detected using a fluorescence microplate reader.
Background: ELISA stands for enzyme-linked immunosorbent assay.

Assay [2] addresses T2, cynomolgus CD137 expressed on cells (cynomolgus, UniProt A9YYE7 24-254).
T2 construct: also called Flp-In-CHO::cynoCD137
Put plainly: flow cytometry, Flp-In-CHO::cynoCD137 cells. How it is done:
(§2) The geometric means of the fluorescence intensity were used to calculate EC₅₀ values using nonlinear regression (shared bottom, SLOPE=1).
(§3) 5×10⁴ cells per well were incubated for 1 h in ice-cold PBS containing 5% fetal calf serum (PBS-FCS). A dilution series of the fusion proteins and control antibodies were added to the cells and incubated for 1 h on ice. Cells were washed twice with PBS and then incubated with a goat anti-hIgG Alexa647-labeled antibody for 30 min on ice. Cells were subsequently washed and analyzed using iQue Flow cytometer (Intellicyte Screener). Mean geometric fluorescent signals were plotted and fitted with Graphpad software using nonlinear regression (shared bottom, SLOPE=1).
On the technique in general: In flow cytometry, cells or beads pass a laser one at a time.

For assay [3], the target named is T3, huPD-L1-His (human PD-L1 with a C-terminal polyhistidine tag) (human, UniProt Q9NZQ7 19-239).
T3 construct: Bought; also called biotinylated huPD-L1-His
Briefly: dual-binding ELISA, huPD-L1-His coated, binder titrated, detection with biotinylated huCD137-His. How it is done:
Recombinant huPD-L1-His (R&D Systems) in PBS (1 μg/mL) was coated overnight on microtiter plates at 4° C. The plates were washed five times after each incubation step with 100 μL PBS-0.05% T. The plates were blocked with 2% BSA (w/v) in PBS-0.1% T for 1 h at room temperature and subsequently washed again. Different concentrations of tested fusion proteins were added to the wells and incubated for 1 h at room temperature, followed by a wash step. […] After washing, a 1:5000 dilution of ExtrAvidin-HRP (Sigma-Aldrich) in PBS-0.1% T-2% BSA was added to the wells and incubated for 1 h. After an additional wash step, fluorogenic HRP substrate (QuantaBlu, Thermo) was added to each well, and the fluorescence intensity was detected using a fluorescence microplate reader.

Assay [4] concerns the target T4, cynomolgus PD-L1 expressed on cells (cynomolgus).
T4 construct: whole, on cells; also called Flp-In-CHO::cynoPDL-1
Put plainly: flow cytometry, Flp-In-CHO::cynoPDL-1 cells. The protocol:
as §2, §3

For assay [5], the target named is T5, huPD-L1-Fc (recombinant human PD-L1 Fc fusion) (human, UniProt Q9NZQ7 19-239).
T5 construct: Bought; also called tracer huPD-L1-Fc
Put plainly: competitive ELISA, huPD-1-His coated, 15 nM huPD-L1-Fc tracer, binder titrated. How it is done:
(§4) Recombinant huPD-1-His (Acrobiosystems) in PBS (1 μg/mL) was coated overnight on microtiter plates at 4° C. The plates were washed five times after each incubation step with 100 μL PBS-0.05% T (PBS supplemented with 0.05% (v/v) Tween 20). The plates were blocked with 2% BSA (w/v) in PBS-0.1% T (PBS supplemented with 0.1% (v/v) Tween 20) for 1 h at room temperature and subsequently washed again. […] The mixtures of fusion proteins and the tracer were added to the plates and incubated for 20 min at room temperature following by five washing steps with 100 μL PBS-0.05% T. Subsequently, a 1:5000 dilution of goat-anti human IgG-Fc HRP (Jackson) was added to the wells and incubated for 1 h. After an additional wash step, fluorogenic HRP substrate (QuantaBlu, Thermo) was added to each well, and the fluorescence intensity was detected using a fluorescence microplate reader.

Assay [6] has as its target T6, huCD137-His (human CD137 with a C-terminal polyhistidine tag) (human, UniProt Q07011 24-186).
T6 construct: Bought; also called huCD137-His-Bio
Briefly: SPR (Biacore), binder captured by anti-human IgG Fc, huCD137-His in solution, 25 C, 1:1 model. The protocol: (§5) The binding kinetics and affinity of exemplary fusion proteins to huPD-L1-His or huCD137-His (human PD-L1 or human CD137 with a C-terminal polyhistidine tag, R&D Systems) were determined by surface plasmon resonance (SPR) using a Biacore 8K or a Biacore T200 (GE Healthcare).
(§6) The anti-human IgG Fc antibody (GE Healthcare) was immobilized on a CM5 sensor chip using standard amine chemistry: the carboxyl groups on the chip were activated using 1-ethyl-3-(3-dimethylaminopropyl)-carbodiimide (EDC) and N-hydroxysuccinimide (NHS). Subsequently, anti-human IgG Fc antibody solution (GE Healthcare) at a concentration of 25 μg/mL in 10 mM sodium acetate (pH 5.0) was applied at a flow rate of 5 μL/min until an immobilization level of 6000-10000 resonance units (RU) was achieved. Residual non-reacted NHS-esters were blocked by passing a solution of 1M ethanolamine across the surface. The reference channel was treated in an analogous manner. […] After each capture step, the needle was washed.
(§7) Double referencing was used and the 1:1 binding model was used to fit the raw data.

The target of assay [7] is T6, huCD137-His (human CD137 with a …). Briefly: dual-binding ELISA, huCD137-His coated, binder titrated, detection with biotinylated huPD-L1-His.
The target in assay [8] is T7, human PD-L1 expressed on cells (human, UniProt Q9NZQ7 19-290).
T7 construct: whole, on cells; also called Flp-In-CHO::huPDL-1; RKO cells
Put plainly: flow cytometry, RKO tumor cells (PD-L1-positive). The protocol: as §3
For flow cytometric analysis, RKO cells were incubated with fusion proteins and detected using a fluorescently labeled anti-human IgG antibody as described in Example 6.

Assay [9] has as its target cyCD137-Fc (cynomolgus CD137 C-terminally fused to Fc) (cynomolgus). Briefly: ELISA, cyCD137-Fc coated, detection anti-NGAL-HRP. How it is done: as §1
(§8) The same ELISA setup was also employed to determine the binding potency of fusion proteins to CD137, where huCD137-His (human CD137 with C-terminal polyhistidine tag, R&D Systems) or cyCD137-Fc (cynomolgus CD137 C-terminally fused to Fc) was instead coated on a microtiter plate. The testing agents were similarly titrated and bound agents were detected via anti-NGAL-HRP.

For assay [10], the target named is T7, human PD-L1 expressed on cells. Briefly: flow cytometry, Flp-In-CHO::huPDL-1 cells. The protocol: as §2, §3
Assay [11] addresses T3, huPD-L1-His (human PD-L1 with a …). Briefly: SPR (Biacore), binder captured by anti-human IgG Fc, huPD-L1-His in solution, 25 C, 1:1 model. How it is done:
as §5, §6, §7
On the technique in general: SPR reads the build-up and loss of mass on a sensor chip optically.

Assay [12] has the same target. Briefly: ELISA, huPD-L1-His coated, detection anti-human IgG Fc-HRP. The protocol: as §1
The target of assay [13] is T8, human CD137 expressed on cells (human, UniProt Q07011 24-255).
T8 construct: whole, on cells; also called Flp-In-CHO::huCD137; NFκB-luc2/CD137 Jurkat cells
Put plainly: flow cytometry, Flp-In-CHO::huCD137 cells. How it is done:
as §2, §3

In assay [14] the target is T6, huCD137-His (human CD137 with a …). Put plainly: ELISA, huCD137-His coated, detection anti-NGAL-HRP. How it is done:
as §1, §8

Assay [15] addresses T3, huPD-L1-His (human PD-L1 with a …). Put plainly: ELISA, huPD-L1-His coated, detection anti-human IgG Fc-HRP per paragraph 264; the filing does not say that this reagent detects the lipocalin mutein alone.
Assay [16] concerns the target T9, biotinylated huCD137-Fc (human CD137 Fc fusion) (human, UniProt Q07011 24-186, biotinylated).
T9 construct: Bought; also called huCD137-Fc-bio
Briefly: competitive ELISA, antibody SEQ ID NOs: 28 and 29 coated (competitor), 1 nM huCD137-Fc-bio tracer, binder titrated. How it is done: as §4, with “The” for “Recombinant huPD-1-His (Acrobiosystems) in PBS (1 μg/mL) was coated overnight on microtiter plates at 4° C. The”, “testing molecules” for “fusion proteins”, “ExtrAvidin-HRP (Sigma-Aldrich) in PBS-0.1% T-2% BSA” for “goat-anti human IgG-Fc HRP (Jackson)”
Competition data for an exemplary experiment are shown in FIG. 14, where the x-axis represents testing molecule concentration and the y-axis represents the measured trace molecule concentration. The data were fit to a 1:1 sigmoidal curve, where the IC₅₀ value and the maximum signal were free parameters, and the slope was fixed to unity.

B1: fusion protein SEQ ID NOs: 90 and 91 (bispecific antibody, human IgG4 S228P, kappa, F234A L235A)
heavy: not shown
light: EIVLTQSPDTLSVTPKEKVTLTCRASQSIGTNIHWFQQKPGQSPKLLIKYASESISGVPSRFSGSGSGTDFTLTINSVEAEDAATYYCQQSNSWPYTFGQGTKLEIKRTVAAPSVFIFPPSDEQLKSGTASVVCLLNNFYPREAKVQWKVDNALQSGNSQESVTEQDSKDSTYSLSSTLTLSKADYEKHKVYACEVTHQGLSSPVTKSFNRGECGGGGSGGGGSGGGGSQDSTSDLIPAPPLSKVPLQQNFQDNQFHGKWYVVGQAGNIRLREDKDPIKMMATIYELKEDKSYDVTMVKFDDKKCMYDIWTFVPGSQPGEFTLGKIKSFPGHTSSLVRVVSTNYNQHAMVFFKFVFQNREEFYITLYGRTKELTSELKENFIRFSKSLGLPENHIVFPVPIDQCIDG
notes: Antibody-lipocalin mutein fusion, IgG4 S228P backbone
Usually EC50 stands for the concentration needed to bring the measured effect to its halfway point. A higher EC50 goes with a need for much substance. One may read the IC50 as the concentration that gives 50% inhibition. One may read the Kd as the constant that tells how readily two partners part at equilibrium. A word on the koff: it is the first-order rate constant of dissociation. Read a high koff as a short-lived complex. By kon is commonly meant a measure of how fast the partners come together. Low values mean slow association, high ones fast association. B1: the EC50 amounted to 0.17 nM in assay [1]; 3.66 nM in [2]; 0.49 nM in [3]; 3.37 nM in assay [4]; 2.3 nM in assay [7]; 0.53 nM in assay [8]. The EC50 is 0.21 nM in assay [9]; 4.09 nM in assay [10]; 0.2 nM in assay [12]; 4.69 nM in [13]; 0.14 nM in assay [14]. Besides, in assay [5], the IC50 stood at 2.8 nM. Besides, the dissociation constant Kd is 5.73 nM in [6] and 0.537 nM in [11]. Also, the results for the koff in assay [6] and in [11] were 0.000224 s⁻¹ and 0.000861 s⁻¹, respectively. Besides, the kon in assay [6] was found to be 39100 M⁻¹ s⁻¹; in [11], 1.6e+06 M⁻¹ s⁻¹.

B2: fusion protein SEQ ID NOs: 94 and 87 (bispecific antibody, human IgG4 S228P, kappa, F234A L235A)
heavy: not shown
light: EIVLTQSPDTLSVTPKEKVTLTCRASQSIGTNIHWFQQKPGQSPKLLIKYASESISGVPSRFSGSGSGTDFTLTINSVEAEDAATYYCQQSNSWPYTFGQGTKLEIKRTVAAPSVFIFPPSDEQLKSGTASVVCLLNNFYPREAKVQWKVDNALQSGNSQESVTEQDSKDSTYSLSSTLTLSKADYEKHKVYACEVTHQGLSSPVTKSFNRGEC
notes: as for B1
On to B2, for which the EC50 in [1] was 0.15 nM; in assay [2], 6.92 nM; in [3], 0.48 nM; in assay [4], 5.89 nM; in assay [7] it was 2.6 nM; in assay [8], 0.69 nM. Also, the EC50 in assay [9] turned out to be 0.19 nM; in assay [10], 6.99 nM; in assay [12], 0.18 nM; in assay [13], 4.15 nM; in assay [14], 0.16 nM. Also, the IC50 in assay [5] was 2.4 nM. For the same molecule, the Kd in [6] is 5.5 nM; in [11], 0.608 nM. In addition, the off-rate constant (koff) came to 0.000224 s⁻¹ in assay [6] and 0.000916 s⁻¹ in assay [11]. In addition, the kon in [6] was 40700 M⁻¹ s⁻¹; in assay [11] it was 1.51e+06 M⁻¹ s⁻¹.

B3: CD137-specific lipocalin mutein SEQ ID NO: 42 (designed binder)
chain: QDSTSDLIPAPPLSKVPLQQNFQDNQFHGKWYVVGQAGNIRLREDKDPIKMMATIYELKEDKSYDVTMVKFDDKKCMYDIWTFVPGSQPGEFTLGKIKSFPGHTSSLVRVVSTNYNQHAMVFFKFVFQNREEFYITLYGRTKELTSELKENFIRFSKSLGLPENHIVFPVPIDQCIDG
notes: Mutein of mature human NGAL
In the case of B3, the binding result in assay [15] was “no binding (tested: 100 nM)”. In [16], the IC50 stood at 2.6 nM. Also, the midpoint of the response in assay [14], the EC50, lay at 0.27 nM.
